# In patent US20190201496A1 (BRIGHAM AND WOMEN S HOSPITAL, published 2019):
# B1: human alpha-fetoprotein (AFP) (ligand)
# chain: RTLHRNEYGIASILDSYQCTAEISLADLATIFFAQFVQEATYKEVSKMVKDALTAIEKPTGDEQSSGCLENQLPAFLEELCHEKEILEKYGHSDCCSQSEEGRHNCFLAHKKPTPASIPLFQVPEPVTSCEAYEEDRETFMNKFIYEIARRHPFLYAPTILLWAARYDKIIPSCCKAENAVECFQTKAATVTKELRESSLLNQHACAVMKNFGTRTFQAITVTKLSQKFTKVNFTEIQKLVLDVAHVHEHCCRGDVLDCLQDGEKIMSYICSQQDTLSNKITECCKLTTLERGQCIIHAENDEKPEGLSPNLNRFLGDRDFNQFSSGEKNIFLASFVHEYSRRHPQLAVSVILRVAKGYQELLEKCFQTENPLECQDKGEEELQKYIQESQALAKRSCGLFQKLGEYYLQNAFLVAYTKKAPQLTSSELMAITRKMAATAATCCQLSEDKLLACGEGAADIIIGHLCIRHEMTPVNPGVGQCCTSSYANRRPCFSSLVVDETYVPPAFSDDKFIFHKDLCQAQGVALQTMKQEFLINLVKQKPQITEEQLEAVIADFSGLLEKCCQGQEQEVCFAEEGQKLISKTRAALGV
# notes: also called hAFP; human AFP
# Molecular target: neonatal Fc receptor (FcRn) (UniProt P55899 24-297, limits assumed)
# Experiment: comparison of observed KD values; the assay for FcRn is not described here
# Sequence of neonatal Fc receptor (FcRn) (P55899 24-297 limits assumed, form in doubt, chain 1 of 2): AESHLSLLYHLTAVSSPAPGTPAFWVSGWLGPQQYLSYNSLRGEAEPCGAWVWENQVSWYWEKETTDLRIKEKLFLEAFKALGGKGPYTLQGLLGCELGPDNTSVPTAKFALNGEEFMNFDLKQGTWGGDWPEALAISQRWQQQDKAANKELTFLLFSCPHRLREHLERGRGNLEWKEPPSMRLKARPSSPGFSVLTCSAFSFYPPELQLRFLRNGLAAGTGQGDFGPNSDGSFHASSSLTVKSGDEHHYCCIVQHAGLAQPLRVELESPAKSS
# Sequence of neonatal Fc receptor (FcRn) (chain, as listed by the source limits assumed, form in doubt, chain 2 of 2): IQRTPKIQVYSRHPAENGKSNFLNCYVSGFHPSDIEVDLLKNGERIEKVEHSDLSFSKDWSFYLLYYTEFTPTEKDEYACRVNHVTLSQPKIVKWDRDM
binder,measurement,value
B1,fold higher affinity than AFP to β2M,100 fold
